1 substance from patent US20040248785A1 can be followed below.

Assay [1] deals with low density lipoprotein receptor-related protein / alpha2-macroglobulin receptor (LRP), isolated from human placenta (human) (UniProt Q07954). Nature of the assay: homologous displacement of 125I-fVIII (1 nM) by unlabeled fVIII on LRP-coated wells, single class of sites, LIGAND. In general terms: In a radioligand displacement assay an active substance lowers the binding of a labelled ligand.

Assay [2] has the same target. Nature of the assay: solid-phase homologous ligand displacement: 125I-fVIII (1 nM) on LRP-coated wells, 1 h at 37 C, rising unlabeled fVIII.
The target is the same in assay [3]. Nature of the assay: homologous displacement on LRP-coated wells.

Chain of low density lipoprotein receptor-related protein / alpha2-macroglobulin receptor (LRP), isolated from human placenta (human) (Q07954 20-4544): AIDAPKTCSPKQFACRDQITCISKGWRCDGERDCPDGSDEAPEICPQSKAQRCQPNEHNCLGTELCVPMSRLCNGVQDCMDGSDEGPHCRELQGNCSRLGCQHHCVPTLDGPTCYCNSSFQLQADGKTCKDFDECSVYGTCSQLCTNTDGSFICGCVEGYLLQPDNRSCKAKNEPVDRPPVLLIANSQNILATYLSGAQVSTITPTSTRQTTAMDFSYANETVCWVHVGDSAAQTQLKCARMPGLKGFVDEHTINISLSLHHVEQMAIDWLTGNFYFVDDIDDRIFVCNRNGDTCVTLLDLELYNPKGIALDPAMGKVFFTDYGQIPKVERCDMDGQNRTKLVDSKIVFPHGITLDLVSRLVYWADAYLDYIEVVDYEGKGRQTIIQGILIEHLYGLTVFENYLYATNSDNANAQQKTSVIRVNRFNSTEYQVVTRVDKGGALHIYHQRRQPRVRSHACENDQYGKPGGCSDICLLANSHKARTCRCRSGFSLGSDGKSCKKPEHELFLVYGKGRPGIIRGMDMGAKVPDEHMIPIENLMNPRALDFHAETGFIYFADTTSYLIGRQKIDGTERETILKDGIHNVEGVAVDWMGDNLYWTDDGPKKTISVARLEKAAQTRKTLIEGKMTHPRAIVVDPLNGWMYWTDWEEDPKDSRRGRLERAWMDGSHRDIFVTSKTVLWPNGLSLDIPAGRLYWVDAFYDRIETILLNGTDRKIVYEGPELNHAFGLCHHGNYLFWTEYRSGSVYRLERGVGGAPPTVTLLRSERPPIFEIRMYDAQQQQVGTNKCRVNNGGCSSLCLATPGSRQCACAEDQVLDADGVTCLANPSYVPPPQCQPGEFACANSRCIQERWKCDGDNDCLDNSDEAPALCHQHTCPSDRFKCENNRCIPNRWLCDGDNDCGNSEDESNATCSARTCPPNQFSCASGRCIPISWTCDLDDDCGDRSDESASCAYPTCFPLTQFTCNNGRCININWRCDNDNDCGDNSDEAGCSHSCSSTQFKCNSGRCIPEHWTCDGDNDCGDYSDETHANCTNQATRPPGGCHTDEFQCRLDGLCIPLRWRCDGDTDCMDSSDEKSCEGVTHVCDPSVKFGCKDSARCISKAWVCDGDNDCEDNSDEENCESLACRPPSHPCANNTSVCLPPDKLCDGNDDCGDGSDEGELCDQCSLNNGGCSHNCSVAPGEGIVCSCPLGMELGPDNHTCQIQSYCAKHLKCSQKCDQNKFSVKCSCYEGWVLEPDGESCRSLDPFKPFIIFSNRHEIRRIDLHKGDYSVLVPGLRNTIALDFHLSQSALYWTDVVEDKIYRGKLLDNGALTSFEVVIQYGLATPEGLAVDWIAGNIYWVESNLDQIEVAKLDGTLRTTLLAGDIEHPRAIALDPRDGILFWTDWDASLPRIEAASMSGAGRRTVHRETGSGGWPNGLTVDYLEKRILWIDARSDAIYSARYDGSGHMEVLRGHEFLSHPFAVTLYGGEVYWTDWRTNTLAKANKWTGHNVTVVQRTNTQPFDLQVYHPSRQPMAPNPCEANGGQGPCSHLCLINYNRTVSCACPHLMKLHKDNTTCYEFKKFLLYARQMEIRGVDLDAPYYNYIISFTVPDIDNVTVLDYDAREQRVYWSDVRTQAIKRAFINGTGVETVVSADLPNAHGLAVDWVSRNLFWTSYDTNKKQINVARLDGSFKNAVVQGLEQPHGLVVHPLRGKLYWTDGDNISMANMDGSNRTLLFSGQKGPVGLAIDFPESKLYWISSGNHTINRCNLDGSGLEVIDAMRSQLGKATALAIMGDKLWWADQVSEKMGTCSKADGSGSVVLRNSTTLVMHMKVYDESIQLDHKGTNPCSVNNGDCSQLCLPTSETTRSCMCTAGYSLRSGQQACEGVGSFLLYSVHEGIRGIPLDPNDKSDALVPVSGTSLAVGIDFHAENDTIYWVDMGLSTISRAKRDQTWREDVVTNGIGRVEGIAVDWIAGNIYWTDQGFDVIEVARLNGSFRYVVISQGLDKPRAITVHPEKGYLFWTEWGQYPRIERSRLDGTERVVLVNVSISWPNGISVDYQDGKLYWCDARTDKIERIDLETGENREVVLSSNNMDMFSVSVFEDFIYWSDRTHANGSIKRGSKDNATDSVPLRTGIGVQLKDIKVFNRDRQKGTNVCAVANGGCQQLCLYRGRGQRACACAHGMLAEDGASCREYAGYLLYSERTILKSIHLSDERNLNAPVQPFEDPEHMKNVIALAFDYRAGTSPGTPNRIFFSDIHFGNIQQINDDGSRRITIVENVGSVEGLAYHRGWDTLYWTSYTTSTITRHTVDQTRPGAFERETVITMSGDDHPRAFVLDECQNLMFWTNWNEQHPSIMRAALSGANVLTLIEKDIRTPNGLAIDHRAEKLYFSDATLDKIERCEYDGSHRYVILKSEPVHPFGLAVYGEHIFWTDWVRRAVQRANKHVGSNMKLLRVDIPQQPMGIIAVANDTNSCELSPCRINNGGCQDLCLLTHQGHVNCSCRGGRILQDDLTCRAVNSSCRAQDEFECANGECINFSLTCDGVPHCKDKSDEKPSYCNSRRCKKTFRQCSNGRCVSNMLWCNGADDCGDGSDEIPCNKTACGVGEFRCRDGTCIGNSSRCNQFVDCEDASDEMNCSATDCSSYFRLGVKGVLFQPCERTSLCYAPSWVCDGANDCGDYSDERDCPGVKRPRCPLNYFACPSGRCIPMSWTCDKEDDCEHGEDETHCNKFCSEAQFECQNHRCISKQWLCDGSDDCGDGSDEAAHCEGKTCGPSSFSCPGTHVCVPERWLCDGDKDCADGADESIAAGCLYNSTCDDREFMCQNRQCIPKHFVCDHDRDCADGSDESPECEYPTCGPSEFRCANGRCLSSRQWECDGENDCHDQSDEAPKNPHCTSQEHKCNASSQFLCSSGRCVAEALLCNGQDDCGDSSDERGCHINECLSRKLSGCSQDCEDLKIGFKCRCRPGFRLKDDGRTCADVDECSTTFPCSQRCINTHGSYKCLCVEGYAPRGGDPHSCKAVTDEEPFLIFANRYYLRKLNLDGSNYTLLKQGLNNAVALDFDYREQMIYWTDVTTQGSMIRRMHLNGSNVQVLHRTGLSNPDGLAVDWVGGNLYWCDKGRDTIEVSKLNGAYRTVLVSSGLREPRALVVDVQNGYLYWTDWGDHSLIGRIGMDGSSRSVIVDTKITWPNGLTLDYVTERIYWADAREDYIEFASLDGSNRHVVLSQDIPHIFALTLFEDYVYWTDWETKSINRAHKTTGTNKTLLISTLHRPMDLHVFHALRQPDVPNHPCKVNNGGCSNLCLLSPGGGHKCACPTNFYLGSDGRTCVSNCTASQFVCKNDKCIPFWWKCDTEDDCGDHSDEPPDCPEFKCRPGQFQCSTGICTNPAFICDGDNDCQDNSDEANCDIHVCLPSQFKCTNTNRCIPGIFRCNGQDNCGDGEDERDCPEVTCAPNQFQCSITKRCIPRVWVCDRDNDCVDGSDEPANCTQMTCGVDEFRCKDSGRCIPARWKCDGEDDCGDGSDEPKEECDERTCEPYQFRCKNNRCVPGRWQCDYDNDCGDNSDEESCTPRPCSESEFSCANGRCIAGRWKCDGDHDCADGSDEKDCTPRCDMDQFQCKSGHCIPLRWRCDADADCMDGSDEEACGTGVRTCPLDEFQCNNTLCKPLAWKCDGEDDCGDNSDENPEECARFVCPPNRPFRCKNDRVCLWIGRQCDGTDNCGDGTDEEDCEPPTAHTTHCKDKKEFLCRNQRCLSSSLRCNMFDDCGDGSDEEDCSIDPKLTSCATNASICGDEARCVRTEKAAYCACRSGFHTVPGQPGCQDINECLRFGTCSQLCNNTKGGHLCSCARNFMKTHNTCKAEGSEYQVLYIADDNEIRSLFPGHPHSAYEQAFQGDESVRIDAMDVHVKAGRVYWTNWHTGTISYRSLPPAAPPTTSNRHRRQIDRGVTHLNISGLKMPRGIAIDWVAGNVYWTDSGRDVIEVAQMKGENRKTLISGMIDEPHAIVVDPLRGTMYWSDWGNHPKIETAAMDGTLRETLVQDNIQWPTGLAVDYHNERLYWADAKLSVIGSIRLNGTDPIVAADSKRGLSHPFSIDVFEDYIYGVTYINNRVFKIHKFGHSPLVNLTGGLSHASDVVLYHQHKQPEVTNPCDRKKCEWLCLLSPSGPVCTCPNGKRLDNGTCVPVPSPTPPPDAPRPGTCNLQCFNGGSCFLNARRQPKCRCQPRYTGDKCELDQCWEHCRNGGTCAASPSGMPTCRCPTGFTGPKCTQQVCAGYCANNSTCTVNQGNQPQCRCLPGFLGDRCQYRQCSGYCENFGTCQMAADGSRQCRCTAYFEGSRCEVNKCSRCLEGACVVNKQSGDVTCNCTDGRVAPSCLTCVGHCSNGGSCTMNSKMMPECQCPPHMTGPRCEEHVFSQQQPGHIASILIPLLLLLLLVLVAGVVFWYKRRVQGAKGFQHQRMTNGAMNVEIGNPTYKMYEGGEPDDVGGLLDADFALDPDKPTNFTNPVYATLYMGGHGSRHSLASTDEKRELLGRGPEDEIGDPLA

A word on the Kd: it is the constant that tells how readily two partners part at equilibrium. A low value points to tighter binding. Consider “factor VIII (fVIII), purified from therapeutic concentrates of Method M, American Red Cross, P00451 20-1667; P00451 1668-2351”, for which the Kd in assay [1] came to 116 nM. The IC50 (read off the curve) in assay [2] came to 100 nM. In assay [3], this substance gave a percent of 125I-fVIII binding competed by an excess of unlabeled fVIII of over 90%.
